assay: melting temperature; melt of duplexes; settings: sodium 0.0675 M; strand 1 µM

First: CGACGTGCCTGATGTGCTG+CAGCACATGACGCACGTCG ((((((((.(.((((((((+)))))))).).))))))))
Second: CGACGTGCCTTATGTGCTG+CAGCACATTGAGCACGTCG ((((((((...((((((((+))))))))...))))))))
The Tm of the first is lower: 44.5 °C for the first, 49.6 °C for the second.

First: CGACGTGCTGCATGTGCTG+CAGCACATTAGGCACGTCG ((((((((...((((((((+))))))))...))))))))
Second: CGACGTGCATCATGTGCTG+CAGCACATGGAGCACGTCG ((((((((..(((((((((+)))))))))..))))))))
The Tm of the first is lower: 50.4 °C for the first, 55.5 °C for the second.

Going from “CGACGTGCGTTATGTGCTG+CAGCACATGAGGCACGTCG ((((((((.(.((((((((+)))))))).).))))))))” to “CGACGTGCGCGATGTGCTG+CAGCACATAACGCACGTCG (((((((((..((((((((+))))))))..)))))))))”, the Tm rises from 54.1 °C to 54.4 °C.

Compared with “CGACGTGCGACATGTGCTG+CAGCACATCTGGCACGTCG ((((((((.(.((((((((+)))))))).).))))))))”, “CGACGTGCGCCATGTGCTG+CAGCACATCCTGCACGTCG ((((((((...((((((((+))))))))...))))))))” is lower in Tm: 49 °C for the first, 47.3 °C for the second.

First: CGACGTGCTAGATGTGCTG+CAGCACATAATGCACGTCG ((((((((...((((((((+))))))))...))))))))
Second: CGACGTGCTCCATGTGCTG+CAGCACATGCAGCACGTCG (((((((((.(((((((((+))))))))).)))))))))
The Tm of the first is lower: 50.6 °C for the first, 55.3 °C for the second.

Compared with “CGACGTGCGGCATGTGCTG+CAGCACATACCGCACGTCG ((((((((((.((((((((+)))))))).))))))))))”, “CGACGTGCTTCATGTGCTG+CAGCACATTTGGCACGTCG ((((((((...((((((((+))))))))...))))))))” is lower in Tm: 60 °C for the first, 48.6 °C for the second.

First: CGACGTGCACCATGTGCTG+CAGCACATTCAGCACGTCG ((((((((...((((((((+))))))))...))))))))
Second: CGACGTGCCGAATGTGCTG+CAGCACATACCGCACGTCG ((((((((.(.((((((((+)))))))).).))))))))
The Tm of the first is lower: 42.6 °C for the first, 49.5 °C for the second.

Going from “CGACGTGCGATATGTGCTG+CAGCACATTCCGCACGTCG (((((((((..((((((((+))))))))..)))))))))” to “CGACGTGCGGGATGTGCTG+CAGCACATCCGGCACGTCG ((((((((.((((((((((+)))))))))).))))))))”, the Tm rises from 53.8 °C to 61.6 °C.

First: CGACGTGCAAGATGTGCTG+CAGCACATTCTGCACGTCG (((((((((..((((((((+))))))))..)))))))))
Second: CGACGTGCAAGATGTGCTG+CAGCACATGGGGCACGTCG ((((((((...((((((((+))))))))...))))))))
The Tm of the first is higher: 53.2 °C for the first, 50.8 °C for the second.

Compared with “CGACGTGCAAGATGTGCTG+CAGCACATATCGCACGTCG ((((((((.(.((((((((+)))))))).).))))))))”, “CGACGTGCACGATGTGCTG+CAGCACATATCGCACGTCG ((((((((...((((((((+))))))))...))))))))” is lower in Tm: 50.3 °C for the first, 44.2 °C for the second.

First: CGACGTGCGCAATGTGCTG+CAGCACATTTAGCACGTCG ((((((((..(((((((((+)))))))))..))))))))
Second: CGACGTGCTACATGTGCTG+CAGCACATTGTGCACGTCG ((((((((...((((((((+))))))))...))))))))
The Tm of the first is higher: 53 °C for the first, 48.7 °C for the second.

Compared with “CGACGTGCGATATGTGCTG+CAGCACATCTCGCACGTCG ((((((((((.((((((((+)))))))).))))))))))”, “CGACGTGCGCGATGTGCTG+CAGCACATACTGCACGTCG ((((((((...((((((((+))))))))...))))))))” is lower in Tm: 57.2 °C for the first, 50.3 °C for the second.

Compared with “CGACGTGCCGTATGTGCTG+CAGCACATAACGCACGTCG ((((((((..(((((((((+)))))))))..))))))))”, “CGACGTGCGTGATGTGCTG+CAGCACATCTAGCACGTCG ((((((((..(((((((((+)))))))))..))))))))” is higher in Tm: 52.6 °C for the first, 57.2 °C for the second.

Going from “CGACGTGCGCAATGTGCTG+CAGCACATCTAGCACGTCG ((((((((...((((((((+))))))))...))))))))” to “CGACGTGCGGAATGTGCTG+CAGCACATGCCGCACGTCG ((((((((((.((((((((+)))))))).))))))))))”, the Tm rises from 51.8 °C to 62.1 °C.

Going from “CGACGTGCGCGATGTGCTG+CAGCACATTCGGCACGTCG ((((((((...((((((((+))))))))...))))))))” to “CGACGTGCGATATGTGCTG+CAGCACATAGCGCACGTCG (((((((((.(((((((((+))))))))).)))))))))”, the Tm rises from 53.2 °C to 61.3 °C.

Compared with “CGACGTGCATCATGTGCTG+CAGCACATCTAGCACGTCG ((((((((...((((((((+))))))))...))))))))”, “CGACGTGCCTAATGTGCTG+CAGCACATGGTGCACGTCG ((((((((...((((((((+))))))))...))))))))” is higher in Tm: 47.3 °C for the first, 48.3 °C for the second.

Going from “CGACGTGCAAAATGTGCTG+CAGCACATAAAGCACGTCG ((((((((...((((((((+))))))))...))))))))” to “CGACGTGCCCGATGTGCTG+CAGCACATAGTGCACGTCG ((((((((.(.((((((((+)))))))).).))))))))”, the Tm falls from 50.8 °C to 48 °C.

Going from “CGACGTGCTCGATGTGCTG+CAGCACATCTTGCACGTCG ((((((((..(((((((((+)))))))))..))))))))” to “CGACGTGCGCGATGTGCTG+CAGCACATCGAGCACGTCG ((((((((.((((((((((+)))))))))).))))))))”, the Tm rises from 53.3 °C to 63.1 °C.

First: CGACGTGCATAATGTGCTG+CAGCACATGCTGCACGTCG (((((((((..((((((((+))))))))..)))))))))
Second: CGACGTGCATGATGTGCTG+CAGCACATATTGCACGTCG (((((((((..((((((((+))))))))..)))))))))
The Tm of the first is lower: 50 °C for the first, 52.3 °C for the second.

Going from “CGACGTGCAACATGTGCTG+CAGCACATCGTGCACGTCG (((((((((..((((((((+))))))))..)))))))))” to “CGACGTGCGGTATGTGCTG+CAGCACATGGGGCACGTCG ((((((((...((((((((+))))))))...))))))))”, the Tm rises from 47.9 °C to 51.7 °C.

Going from “CGACGTGCCCTATGTGCTG+CAGCACATTCAGCACGTCG ((((((((...((((((((+))))))))...))))))))” to “CGACGTGCGACATGTGCTG+CAGCACATTCAGCACGTCG ((((((((...((((((((+))))))))...))))))))”, the Tm rises from 48.8 °C to 52.4 °C.

Going from “CGACGTGCCGGATGTGCTG+CAGCACATATAGCACGTCG ((((((((...((((((((+))))))))...))))))))” to “CGACGTGCGGCATGTGCTG+CAGCACATTTAGCACGTCG ((((((((...((((((((+))))))))...))))))))”, the Tm rises from 49.9 °C to 52 °C.

Going from “CGACGTGCTCAATGTGCTG+CAGCACATCAGGCACGTCG ((((((((...((((((((+))))))))...))))))))” to “CGACGTGCCAAATGTGCTG+CAGCACATCGCGCACGTCG ((((((((...((((((((+))))))))...))))))))”, the Tm falls from 50.5 °C to 48.2 °C.

First: CGACGTGCCGTATGTGCTG+CAGCACATTTGGCACGTCG (((((((((..((((((((+))))))))..)))))))))
Second: CGACGTGCTGGATGTGCTG+CAGCACATCAAGCACGTCG (((((((((.(((((((((+))))))))).)))))))))
The Tm of the first is lower: 55.2 °C for the first, 59 °C for the second.

Compared with “CGACGTGCGAAATGTGCTG+CAGCACATCGTGCACGTCG ((((((((...((((((((+))))))))...))))))))”, “CGACGTGCGGCATGTGCTG+CAGCACATGCGGCACGTCG ((((((((.((((((((((+)))))))))).))))))))” is higher in Tm: 44.7 °C for the first, 61.7 °C for the second.

Compared with “CGACGTGCGGGATGTGCTG+CAGCACATTGTGCACGTCG ((((((((...((((((((+))))))))...))))))))”, “CGACGTGCGTAATGTGCTG+CAGCACATCTAGCACGTCG ((((((((...((((((((+))))))))...))))))))” is higher in Tm: 49.4 °C for the first, 54.7 °C for the second.

First: CGACGTGCCAGATGTGCTG+CAGCACATGCAGCACGTCG ((((((((...((((((((+))))))))...))))))))
Second: CGACGTGCTATATGTGCTG+CAGCACATGCCGCACGTCG ((((((((...((((((((+))))))))...))))))))
The Tm of the first is higher: 51.2 °C for the first, 48.9 °C for the second.

Going from “CGACGTGCCTTATGTGCTG+CAGCACATAGCGCACGTCG ((((((((..(((((((((+)))))))))..))))))))” to “CGACGTGCCGAATGTGCTG+CAGCACATTGGGCACGTCG (((((((((.(((((((((+))))))))).)))))))))”, the Tm rises from 50.4 °C to 59 °C.

Going from “CGACGTGCGTTATGTGCTG+CAGCACATAATGCACGTCG ((((((((.((((((((((+)))))))))).))))))))” to “CGACGTGCCATATGTGCTG+CAGCACATTCAGCACGTCG ((((((((...((((((((+))))))))...))))))))”, the Tm falls from 57.4 °C to 50.2 °C.

Going from “CGACGTGCATTATGTGCTG+CAGCACATAACGCACGTCG ((((((((.((((((((((+)))))))))).))))))))” to “CGACGTGCAGGATGTGCTG+CAGCACATTACGCACGTCG ((((((((...((((((((+))))))))...))))))))”, the Tm falls from 53.8 °C to 50.7 °C.

Compared with “CGACGTGCGCTATGTGCTG+CAGCACATCGGGCACGTCG ((((((((.(.((((((((+)))))))).).))))))))”, “CGACGTGCAGAATGTGCTG+CAGCACATGATGCACGTCG (((((((((..((((((((+))))))))..)))))))))” is higher in Tm: 52 °C for the first, 57.9 °C for the second.

First: CGACGTGCGACATGTGCTG+CAGCACATCTCGCACGTCG ((((((((((.((((((((+)))))))).))))))))))
Second: CGACGTGCCAAATGTGCTG+CAGCACATAATGCACGTCG ((((((((...((((((((+))))))))...))))))))
The Tm of the first is higher: 55.4 °C for the first, 48.2 °C for the second.

First: CGACGTGCGACATGTGCTG+CAGCACATAGAGCACGTCG ((((((((...((((((((+))))))))...))))))))
Second: CGACGTGCACCATGTGCTG+CAGCACATGCGGCACGTCG ((((((((..(((((((((+)))))))))..))))))))
The Tm of the first is higher: 56.3 °C for the first, 50.4 °C for the second.

Compared with “CGACGTGCTGGATGTGCTG+CAGCACATACAGCACGTCG ((((((((((.((((((((+)))))))).))))))))))”, “CGACGTGCCTTATGTGCTG+CAGCACATAACGCACGTCG ((((((((.((((((((((+)))))))))).))))))))” is lower in Tm: 61.4 °C for the first, 52.2 °C for the second.

First: CGACGTGCTGAATGTGCTG+CAGCACATCAGGCACGTCG ((((((((...((((((((+))))))))...))))))))
Second: CGACGTGCTGAATGTGCTG+CAGCACATACCGCACGTCG ((((((((.(.((((((((+)))))))).).))))))))
The Tm of the first is higher: 53.5 °C for the first, 51.3 °C for the second.

Going from “CGACGTGCCCTATGTGCTG+CAGCACATTAAGCACGTCG ((((((((...((((((((+))))))))...))))))))” to “CGACGTGCGTGATGTGCTG+CAGCACATATCGCACGTCG (((((((((..((((((((+))))))))..)))))))))”, the Tm rises from 48.7 °C to 54.6 °C.

From the array DNA melting data of Ke et al.
